By Ki is commonly meant a dissociation constant, usually derived from enzyme kinetics or from competition with a known ligand. The term Km denotes the concentration of substrate that gives half-maximal velocity. Broadly, the kcat/Km is the turnover number divided by the Michaelis constant.

In data set [1] the target is T1, ω-transaminase from Vibrio fluvialis JS17 (VfTA) (Vibrio fluvialis, UniProt F2XBU9).
T1 sequence (F2XBU9 1-453): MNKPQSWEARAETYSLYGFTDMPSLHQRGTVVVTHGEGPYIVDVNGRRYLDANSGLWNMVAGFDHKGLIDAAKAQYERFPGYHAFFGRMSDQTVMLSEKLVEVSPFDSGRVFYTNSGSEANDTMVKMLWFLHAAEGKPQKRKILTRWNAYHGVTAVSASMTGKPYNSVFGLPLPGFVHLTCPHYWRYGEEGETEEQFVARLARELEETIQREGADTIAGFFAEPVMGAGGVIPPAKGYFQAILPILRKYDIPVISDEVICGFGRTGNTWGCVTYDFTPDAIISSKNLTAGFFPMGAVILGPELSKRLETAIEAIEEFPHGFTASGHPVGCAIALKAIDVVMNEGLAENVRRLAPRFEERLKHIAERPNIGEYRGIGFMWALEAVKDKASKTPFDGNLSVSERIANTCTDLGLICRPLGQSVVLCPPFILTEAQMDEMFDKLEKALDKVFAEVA
In words: product formation by purified VfTA (GC); no product inhibition detected. In kind it is biochemical.

For data set [2], the target named is T1, ω-transaminase from Vibrio fluvialis JS17 (VfTA). The data set is described as follows: enzyme kinetics (GC assay), product inhibition of VfTA. In kind it is biochemical.
Substrate in the data set “purified protein”: C[C@H](N)c1ccccc1
In words: purified protein. The note with it: pyridoxal-5'-phosphate (PLP). In kind it is biochemical, Vibrio fluvialis.

Substrate in data set [3]: CC(C)[C@@H]1CC[C@@H](C)CC1=O
The data set is described as follows: steady-state kinetics with purified VfTA (KM, GC assay). The note with it: pyridoxal-5'-phosphate (PLP). The data set is classed as biochemical, Vibrio fluvialis.

As to `CC(C)[C@@H]1CC[C@@H](C)C[C@@H]1N` [(+)-neomenthylamine], the “product formation by purified VfTA (GC); no product inhibition detected” value in data set [1] is “transaminase (VfTA) from Vibrio fluvialis JS17 (PDB: 5ZTX) that can convert (−)-menthone into (+)-neomenthylamine successfully”.

`CC(=O)c1ccccc1` [Acetophenone] had an inhibitory constant (Ki) in data set [2] of 600 µM.

B1: ω-transaminase from Vibrio fluvialis JS17 (VfTA) (Vibrio fluvialis) (protein)
chain: T1 sequence (F2XBU9 1-453)
For B1, in the data set “purified protein”, the Km came to 800 ± 100 µM and the kcat/Km came out at 54400 M⁻¹ s⁻¹. Also, in data set [3], the Km is 5000 ± 600 µM and the kcat/Km worked out at 3300 M⁻¹ s⁻¹.
